Experimental data taken from publication PMC2253824, “The Human TPR Protein TTC4 Is a Putative Hsp90 Co-Chaperone Which Interacts with CDC6 and Shows Alterations in Transformed Cells” (PLoS ONE, 2008).

T1: Drosophila Cdc6, two-hybrid fusion (Drosophila, UniProt Q9VSM9 1-662)
T1 construct: Cdc6 of Drosophila; construct not described; Two-hybrid fusion; also called DmCdc6; source: yeast two-hybrid fusion
T1 sequence (looked up): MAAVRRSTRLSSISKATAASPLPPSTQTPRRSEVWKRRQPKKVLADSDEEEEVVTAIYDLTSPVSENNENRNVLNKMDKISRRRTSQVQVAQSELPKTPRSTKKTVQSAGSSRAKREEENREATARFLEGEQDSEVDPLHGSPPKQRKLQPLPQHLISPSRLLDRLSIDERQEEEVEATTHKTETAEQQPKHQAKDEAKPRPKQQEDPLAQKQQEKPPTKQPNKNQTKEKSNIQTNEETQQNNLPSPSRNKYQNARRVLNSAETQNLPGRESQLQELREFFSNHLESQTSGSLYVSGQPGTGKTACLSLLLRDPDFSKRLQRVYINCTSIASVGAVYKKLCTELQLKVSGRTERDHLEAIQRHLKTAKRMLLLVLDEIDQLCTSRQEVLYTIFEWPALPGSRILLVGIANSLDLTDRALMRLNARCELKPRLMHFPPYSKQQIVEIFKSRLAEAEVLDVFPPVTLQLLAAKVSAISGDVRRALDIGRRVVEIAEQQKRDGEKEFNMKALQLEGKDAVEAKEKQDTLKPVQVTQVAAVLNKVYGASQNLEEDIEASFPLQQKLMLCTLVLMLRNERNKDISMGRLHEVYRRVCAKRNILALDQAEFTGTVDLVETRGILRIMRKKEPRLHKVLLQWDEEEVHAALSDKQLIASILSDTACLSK

T2: human DNA polymerase alpha large subunit, two-hybrid fusion (human, UniProt P09884 1-1462)
T2 construct: DNA polymerase alpha large (catalytic) subunit, human; Two-hybrid fusion; also called HDPa; source: yeast two-hybrid fusion
T2 sequence (looked up): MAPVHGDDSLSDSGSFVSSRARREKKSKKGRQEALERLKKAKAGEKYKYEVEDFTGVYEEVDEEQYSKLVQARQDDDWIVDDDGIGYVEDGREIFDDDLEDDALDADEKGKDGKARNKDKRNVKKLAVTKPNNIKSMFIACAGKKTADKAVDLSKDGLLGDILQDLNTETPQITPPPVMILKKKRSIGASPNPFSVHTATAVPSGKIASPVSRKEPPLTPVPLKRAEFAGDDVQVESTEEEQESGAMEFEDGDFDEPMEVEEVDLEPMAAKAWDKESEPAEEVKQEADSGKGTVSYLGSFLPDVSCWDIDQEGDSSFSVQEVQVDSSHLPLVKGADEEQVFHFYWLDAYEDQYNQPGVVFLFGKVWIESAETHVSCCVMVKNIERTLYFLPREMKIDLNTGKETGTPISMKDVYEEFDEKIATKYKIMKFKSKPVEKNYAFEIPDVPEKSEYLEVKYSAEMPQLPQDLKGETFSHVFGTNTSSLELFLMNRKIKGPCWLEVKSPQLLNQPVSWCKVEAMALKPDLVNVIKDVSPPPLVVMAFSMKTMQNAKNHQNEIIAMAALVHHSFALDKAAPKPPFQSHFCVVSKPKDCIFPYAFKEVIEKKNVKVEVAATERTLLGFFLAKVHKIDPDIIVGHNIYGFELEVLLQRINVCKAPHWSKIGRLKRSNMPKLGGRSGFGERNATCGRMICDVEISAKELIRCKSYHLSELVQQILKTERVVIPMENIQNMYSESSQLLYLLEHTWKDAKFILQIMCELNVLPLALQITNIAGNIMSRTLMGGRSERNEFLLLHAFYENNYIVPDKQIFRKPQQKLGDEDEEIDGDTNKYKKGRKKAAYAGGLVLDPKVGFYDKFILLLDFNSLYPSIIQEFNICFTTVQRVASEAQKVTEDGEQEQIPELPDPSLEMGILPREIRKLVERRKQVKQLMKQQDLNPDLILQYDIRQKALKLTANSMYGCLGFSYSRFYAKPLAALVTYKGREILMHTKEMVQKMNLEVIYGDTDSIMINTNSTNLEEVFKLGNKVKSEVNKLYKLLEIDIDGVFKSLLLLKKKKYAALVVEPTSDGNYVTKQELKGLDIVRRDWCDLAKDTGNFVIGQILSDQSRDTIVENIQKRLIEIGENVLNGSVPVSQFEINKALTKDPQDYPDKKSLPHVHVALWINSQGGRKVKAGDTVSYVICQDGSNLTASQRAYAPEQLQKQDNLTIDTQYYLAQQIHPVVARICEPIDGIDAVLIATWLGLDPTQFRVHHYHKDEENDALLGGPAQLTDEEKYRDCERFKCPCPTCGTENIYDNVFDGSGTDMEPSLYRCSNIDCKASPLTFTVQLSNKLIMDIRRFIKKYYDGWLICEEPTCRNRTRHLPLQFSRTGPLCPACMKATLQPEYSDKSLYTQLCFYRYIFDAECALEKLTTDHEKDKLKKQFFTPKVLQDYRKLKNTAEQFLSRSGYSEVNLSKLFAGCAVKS

T3: human CDC6, two-hybrid fusion in pEG202 (human, UniProt Q99741 1-560)
T3 construct: CDC6, human; clone from A. Dutta, cloned in the BamH1 and Not1 sites of pEG202; also called HuCDC6; hCDC6; source: yeast two-hybrid fusion
T3 sequence (looked up): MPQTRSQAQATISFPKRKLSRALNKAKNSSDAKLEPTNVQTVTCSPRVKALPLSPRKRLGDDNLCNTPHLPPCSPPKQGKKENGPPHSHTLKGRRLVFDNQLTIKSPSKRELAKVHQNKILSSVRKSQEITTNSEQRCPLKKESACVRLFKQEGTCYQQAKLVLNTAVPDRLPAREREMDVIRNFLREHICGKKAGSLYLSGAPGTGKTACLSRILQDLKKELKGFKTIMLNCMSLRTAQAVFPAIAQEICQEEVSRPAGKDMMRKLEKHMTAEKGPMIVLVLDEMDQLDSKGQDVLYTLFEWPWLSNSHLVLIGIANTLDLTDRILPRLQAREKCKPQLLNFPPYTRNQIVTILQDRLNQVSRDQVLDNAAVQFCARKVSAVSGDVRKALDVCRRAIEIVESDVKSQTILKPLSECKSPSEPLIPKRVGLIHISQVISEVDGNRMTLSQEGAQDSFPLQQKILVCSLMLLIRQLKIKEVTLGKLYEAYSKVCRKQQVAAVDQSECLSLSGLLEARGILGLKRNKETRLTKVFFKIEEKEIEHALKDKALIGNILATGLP


How the values were obtained:
Settings in all cases: partners not purified
[1] = biological target: T4, Drosophila Hsp90, two-hybrid fusion (Drosophila, UniProt P02828 1-717); assay: two-hybrid; TTC4 with Drosophila proteins; data not shown
T4 construct: Hsp90 (Hsp83) of Drosophila; construct not described; Two-hybrid fusion; also called DmHsp90; source: yeast two-hybrid fusion
T4 sequence (P02828 whole entry, the tested form may be a part): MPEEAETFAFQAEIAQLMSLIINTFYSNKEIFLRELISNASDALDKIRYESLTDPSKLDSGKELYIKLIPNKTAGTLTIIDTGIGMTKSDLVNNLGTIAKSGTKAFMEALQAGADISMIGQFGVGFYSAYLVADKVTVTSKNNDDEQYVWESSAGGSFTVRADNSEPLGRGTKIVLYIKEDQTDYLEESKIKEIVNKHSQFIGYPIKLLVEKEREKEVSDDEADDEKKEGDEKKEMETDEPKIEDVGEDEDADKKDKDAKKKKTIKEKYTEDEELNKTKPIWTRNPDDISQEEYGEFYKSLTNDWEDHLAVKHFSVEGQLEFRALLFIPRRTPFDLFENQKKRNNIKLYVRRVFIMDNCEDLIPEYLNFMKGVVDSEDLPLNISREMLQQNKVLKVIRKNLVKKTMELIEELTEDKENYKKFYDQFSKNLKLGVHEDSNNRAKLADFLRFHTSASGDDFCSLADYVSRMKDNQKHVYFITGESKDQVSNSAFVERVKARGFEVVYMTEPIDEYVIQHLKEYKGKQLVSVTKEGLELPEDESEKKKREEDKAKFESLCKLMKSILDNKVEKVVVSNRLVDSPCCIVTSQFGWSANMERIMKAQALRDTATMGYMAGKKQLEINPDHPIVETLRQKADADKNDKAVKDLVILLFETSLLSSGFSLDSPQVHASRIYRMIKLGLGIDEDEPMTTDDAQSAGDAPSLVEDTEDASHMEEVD

[2] = biological target: T1, Drosophila Cdc6, two-hybrid fusion; assay: as above
[3] = biological target: T5, human HSP70 protein 8 (HSPA8), two-hybrid fusion in pEG202 (human, UniProt P11142 1-646); assay: two-hybrid; quantitative liquid beta-galactosidase assays; values as a percentage of the cdc6/TTC4 interaction
T5 construct: HSP70 protein 8 (HSPA8), human full length cDNA clone from Origene, cloned in the BamH1 and Xho1 sites of pEG202; also called HuHSP70; source: yeast two-hybrid fusion
T5 sequence (P11142 whole entry, the tested form may be a part): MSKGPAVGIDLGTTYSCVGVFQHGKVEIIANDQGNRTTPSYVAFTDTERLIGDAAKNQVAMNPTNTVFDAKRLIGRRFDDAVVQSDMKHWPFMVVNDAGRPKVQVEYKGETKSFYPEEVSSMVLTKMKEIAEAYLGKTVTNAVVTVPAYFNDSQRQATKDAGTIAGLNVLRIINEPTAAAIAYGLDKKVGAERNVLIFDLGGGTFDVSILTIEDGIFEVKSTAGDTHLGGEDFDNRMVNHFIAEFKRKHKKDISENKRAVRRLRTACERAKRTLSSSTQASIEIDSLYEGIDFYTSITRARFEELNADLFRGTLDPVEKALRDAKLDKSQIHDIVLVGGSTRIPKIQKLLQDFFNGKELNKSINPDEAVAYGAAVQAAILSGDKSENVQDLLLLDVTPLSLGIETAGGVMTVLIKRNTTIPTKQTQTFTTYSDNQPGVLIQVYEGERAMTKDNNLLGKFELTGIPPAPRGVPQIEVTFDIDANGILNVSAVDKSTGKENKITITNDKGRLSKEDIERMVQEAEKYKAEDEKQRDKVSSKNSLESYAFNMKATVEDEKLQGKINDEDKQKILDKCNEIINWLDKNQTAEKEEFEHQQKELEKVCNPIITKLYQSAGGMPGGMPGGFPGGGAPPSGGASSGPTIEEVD

[4] = biological target: T2, human DNA polymerase alpha large …; assay: as above
[5] = biological target: T3, human CDC6, two-hybrid fusion in pEG202; assay: as above
[6] = biological target: T6, human HSP90 protein 1 beta (HSPCB), two-hybrid fusion in pEG202 (human, UniProt P08238 1-724); assay: as above
T6 construct: HSP90 protein 1 beta (HSPCB), human full length cDNA clone from Origene, cloned in the Not1 and Xho1 sites of pEG202; also called HuHSP90; huHSP90; source: yeast two-hybrid fusion
T6 sequence (P08238 whole entry, the tested form may be a part): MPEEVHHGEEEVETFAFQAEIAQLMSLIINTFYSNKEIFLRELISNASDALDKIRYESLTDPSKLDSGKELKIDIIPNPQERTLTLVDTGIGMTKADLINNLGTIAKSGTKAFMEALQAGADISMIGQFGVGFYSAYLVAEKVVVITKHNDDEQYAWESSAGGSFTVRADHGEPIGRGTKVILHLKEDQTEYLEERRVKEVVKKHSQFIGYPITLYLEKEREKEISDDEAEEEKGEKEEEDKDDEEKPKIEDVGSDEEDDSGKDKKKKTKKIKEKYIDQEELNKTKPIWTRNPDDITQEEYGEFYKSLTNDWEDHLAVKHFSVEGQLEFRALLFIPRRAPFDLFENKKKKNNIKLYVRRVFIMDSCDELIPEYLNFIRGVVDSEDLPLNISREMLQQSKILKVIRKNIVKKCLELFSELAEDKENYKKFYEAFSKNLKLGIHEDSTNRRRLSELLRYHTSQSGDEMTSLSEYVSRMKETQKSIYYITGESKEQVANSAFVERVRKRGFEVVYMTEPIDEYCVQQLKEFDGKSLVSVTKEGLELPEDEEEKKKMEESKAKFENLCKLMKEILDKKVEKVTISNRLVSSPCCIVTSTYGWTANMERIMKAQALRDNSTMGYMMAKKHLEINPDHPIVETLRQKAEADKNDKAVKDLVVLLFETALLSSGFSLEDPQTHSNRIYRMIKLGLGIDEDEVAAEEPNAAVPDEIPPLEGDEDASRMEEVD

| Binder | two-hybrid strength relative to TTC4 with huHSP90 [1] [%] | two-hybrid strength relative to TTC4 with human CDC6 [2] [%] | two-hybrid beta-galactosidase, percentage of the cdc6/TTC4 interaction [3] [%] | two-hybrid beta-galactosidase, percentage of the cdc6/TTC4 interaction [4] [%] | two-hybrid beta-galactosidase, percentage of the cdc6/TTC4 interaction [5] [%] | two-hybrid beta-galactosidase, percentage of the cdc6/TTC4 interaction [6] [%] |
| --- | --- | --- | --- | --- | --- | --- |
| human TTC4, two-hybrid fusion in pJG4.5 (natural protein, UniProt O95801 1-387, looked up, TTC4 (tetratricopeptide repeat protein 4), human; full length gene, insert amplified and cloned in the EcoR1 and Xho sites of pJG4.5; source: yeast two-hybrid fusion) MEQPGQDPTSDDVMDSFLEKFQSQPYRGGFHEDQWEKEFEKVPLFMSRAPSEIDPRENPDLACLQSIIFDEERSPEEQAKTYKDEGNDYFKEKDYKKAVISYTEGLKKKCADPDLNAVLYTNRAAAQYYLGNFRSALNDVTAARKLKPCHLKAIIRGALCHLELKHFAEAVNWCDEGLQIDAKEKKLLEMRAKADKLKRIEQRDVRKANLKEKKERNQNEALLQAIKARNIRLSEAACEDEDSASEGLGELFLDGLSTENPHGARLSLDGQGRLSWPVLFLYPEYAQSDFISAFHEDSRFIDHLMVMFGETPSWDLEQKYCPDNLEVYFEDEDRAELYRVPAKSTLLQVLQHQRYFVKALTPAFLVCVGSSPFCKNFLRGRKVYQIR | 50 | 50 | 80 | < 5 | 100 | 100 |
| TTC4-651-TA (217NK), two-hybrid fusion in pJG4.5 (natural protein, human, UniProt O95801 1-387, looked up, TTC4, human, with a point mutation reported in melanoma samples, made by site-directed mutagenesis in TTC4 (pJG4.5); also called TTC4 codon 217 N to K; source: yeast two-hybrid fusion) MEQPGQDPTSDDVMDSFLEKFQSQPYRGGFHEDQWEKEFEKVPLFMSRAPSEIDPRENPDLACLQSIIFDEERSPEEQAKTYKDEGNDYFKEKDYKKAVISYTEGLKKKCADPDLNAVLYTNRAAAQYYLGNFRSALNDVTAARKLKPCHLKAIIRGALCHLELKHFAEAVNWCDEGLQIDAKEKKLLEMRAKADKLKRIEQRDVRKANLKEKKERKQNEALLQAIKARNIRLSEAACEDEDSASEGLGELFLDGLSTENPHGARLSLDGQGRLSWPVLFLYPEYAQSDFISAFHEDSRFIDHLMVMFGETPSWDLEQKYCPDNLEVYFEDEDRAELYRVPAKSTLLQVLQHQRYFVKALTPAFLVCVGSSPFCKNFLRGRKVYQIR |  |  | 70 |  | < 5 | 90 |
| TTC4-201TG (67IM), two-hybrid fusion in pJG4.5 (natural protein, human, UniProt O95801 1-387, looked up, TTC4, human, with a point mutation reported in melanoma samples, made by site-directed mutagenesis in TTC4 (pJG4.5); also called TTC4 codon 67 I to M; source: yeast two-hybrid fusion) MEQPGQDPTSDDVMDSFLEKFQSQPYRGGFHEDQWEKEFEKVPLFMSRAPSEIDPRENPDLACLQSMIFDEERSPEEQAKTYKDEGNDYFKEKDYKKAVISYTEGLKKKCADPDLNAVLYTNRAAAQYYLGNFRSALNDVTAARKLKPCHLKAIIRGALCHLELKHFAEAVNWCDEGLQIDAKEKKLLEMRAKADKLKRIEQRDVRKANLKEKKERNQNEALLQAIKARNIRLSEAACEDEDSASEGLGELFLDGLSTENPHGARLSLDGQGRLSWPVLFLYPEYAQSDFISAFHEDSRFIDHLMVMFGETPSWDLEQKYCPDNLEVYFEDEDRAELYRVPAKSTLLQVLQHQRYFVKALTPAFLVCVGSSPFCKNFLRGRKVYQIR |  |  | 70 |  | 95 | 90 |
| TTC4-230AC (77EA), two-hybrid fusion in pJG4.5 (natural protein, human, UniProt O95801 1-387, looked up, TTC4, human, with a point mutation reported in melanoma samples, made by site-directed mutagenesis in TTC4 (pJG4.5); also called TTC4 codon 77 E to A; source: yeast two-hybrid fusion) MEQPGQDPTSDDVMDSFLEKFQSQPYRGGFHEDQWEKEFEKVPLFMSRAPSEIDPRENPDLACLQSIIFDEERSPEAQAKTYKDEGNDYFKEKDYKKAVISYTEGLKKKCADPDLNAVLYTNRAAAQYYLGNFRSALNDVTAARKLKPCHLKAIIRGALCHLELKHFAEAVNWCDEGLQIDAKEKKLLEMRAKADKLKRIEQRDVRKANLKEKKERNQNEALLQAIKARNIRLSEAACEDEDSASEGLGELFLDGLSTENPHGARLSLDGQGRLSWPVLFLYPEYAQSDFISAFHEDSRFIDHLMVMFGETPSWDLEQKYCPDNLEVYFEDEDRAELYRVPAKSTLLQVLQHQRYFVKALTPAFLVCVGSSPFCKNFLRGRKVYQIR |  |  | 70 |  | < 5 | 75 |
| TTC4-125TA (42VD), two-hybrid fusion in pJG4.5 (natural protein, human, UniProt O95801 1-387, looked up, TTC4, human, with a point mutation reported in melanoma samples, made by site-directed mutagenesis in TTC4 (pJG4.5); also called TTC4 codon 42 V to D; source: yeast two-hybrid fusion) MEQPGQDPTSDDVMDSFLEKFQSQPYRGGFHEDQWEKEFEKDPLFMSRAPSEIDPRENPDLACLQSIIFDEERSPEEQAKTYKDEGNDYFKEKDYKKAVISYTEGLKKKCADPDLNAVLYTNRAAAQYYLGNFRSALNDVTAARKLKPCHLKAIIRGALCHLELKHFAEAVNWCDEGLQIDAKEKKLLEMRAKADKLKRIEQRDVRKANLKEKKERNQNEALLQAIKARNIRLSEAACEDEDSASEGLGELFLDGLSTENPHGARLSLDGQGRLSWPVLFLYPEYAQSDFISAFHEDSRFIDHLMVMFGETPSWDLEQKYCPDNLEVYFEDEDRAELYRVPAKSTLLQVLQHQRYFVKALTPAFLVCVGSSPFCKNFLRGRKVYQIR |  |  | 65 |  | 95 | 80 |
